# According to article doi:10.1101/127514:
# Experiments:
# [1] = molecular target: human C5a receptor with C-terminal mGFP, on HEK cells (human) (UniProt P21730); assay: single-molecule step-wise photobleaching
# [2] = molecular target: Alexa Fluor 647 maleimide-labeled LukS-K281C-Y113H (Staphylococcus aureus); assay: single-molecule step-wise photobleaching
# UniProt P21730, sequence (P21730 whole entry): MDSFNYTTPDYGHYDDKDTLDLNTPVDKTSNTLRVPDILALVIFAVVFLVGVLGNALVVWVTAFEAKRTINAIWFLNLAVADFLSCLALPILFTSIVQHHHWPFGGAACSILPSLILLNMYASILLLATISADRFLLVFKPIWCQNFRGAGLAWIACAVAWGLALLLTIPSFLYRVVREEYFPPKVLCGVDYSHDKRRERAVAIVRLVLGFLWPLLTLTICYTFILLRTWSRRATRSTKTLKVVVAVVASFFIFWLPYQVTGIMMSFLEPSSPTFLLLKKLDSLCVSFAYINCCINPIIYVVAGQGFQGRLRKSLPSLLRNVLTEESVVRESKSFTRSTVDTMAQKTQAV
substance,measurement,setting,value
Alexa Fluor 647 maleimide-labeled LukS-K281C-Y113H (natural protein),stoichiometry N (hC5aR molecules per LukS molecule),[1],4 to 5
same,stoichiometry N,[2],3.9 molecules
